From paper doi:10.1101/2023.11.29.569239 come the findings set out here.

The target in data set [1] is T1, MBP-DDX3Y full-length (UniProt O15523 1-660). Put plainly: EMSA.
In data set [2] the target is T2, MBP-DDX3X full-length (UniProt O00571 1-662). Put plainly: EMSA. On the technique in general: A gel shift assay detects complexes by their altered migration in electrophoresis.
The target in another data set is MBP-ΔΔ DDX3Y (UniProt O15523 130-605). Put plainly: EMSA.
In a further data set the target is MBP-ΔΔ DDX3X (UniProt O00571 132-607). Put plainly: EMSA.
Data set [3] addresses T1, MBP-DDX3Y full-length. Put plainly: single-particle FRET.
In data set [4] the target is T2, MBP-DDX3X full-length. Put plainly: single-particle FRET.

Where only a bound is given, the exact number is not on record here.

T1 sequence (O15523 whole entry): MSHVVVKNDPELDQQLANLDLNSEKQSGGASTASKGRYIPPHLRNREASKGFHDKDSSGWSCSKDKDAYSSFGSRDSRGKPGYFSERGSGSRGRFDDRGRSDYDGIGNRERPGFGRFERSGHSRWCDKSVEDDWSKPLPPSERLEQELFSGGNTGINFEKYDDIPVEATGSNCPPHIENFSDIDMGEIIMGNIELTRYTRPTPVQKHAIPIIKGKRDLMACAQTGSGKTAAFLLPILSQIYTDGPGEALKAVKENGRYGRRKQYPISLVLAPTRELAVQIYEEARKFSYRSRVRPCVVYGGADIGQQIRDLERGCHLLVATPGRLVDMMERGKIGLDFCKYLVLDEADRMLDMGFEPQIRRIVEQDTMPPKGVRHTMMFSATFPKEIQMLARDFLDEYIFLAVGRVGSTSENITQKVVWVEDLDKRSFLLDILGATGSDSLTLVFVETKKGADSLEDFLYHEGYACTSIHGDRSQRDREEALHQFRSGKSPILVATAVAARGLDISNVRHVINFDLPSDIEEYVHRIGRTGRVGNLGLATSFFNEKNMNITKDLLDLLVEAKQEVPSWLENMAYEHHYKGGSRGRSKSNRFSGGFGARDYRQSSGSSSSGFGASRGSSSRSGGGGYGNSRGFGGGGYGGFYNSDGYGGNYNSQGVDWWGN
T2 sequence (O00571 whole entry): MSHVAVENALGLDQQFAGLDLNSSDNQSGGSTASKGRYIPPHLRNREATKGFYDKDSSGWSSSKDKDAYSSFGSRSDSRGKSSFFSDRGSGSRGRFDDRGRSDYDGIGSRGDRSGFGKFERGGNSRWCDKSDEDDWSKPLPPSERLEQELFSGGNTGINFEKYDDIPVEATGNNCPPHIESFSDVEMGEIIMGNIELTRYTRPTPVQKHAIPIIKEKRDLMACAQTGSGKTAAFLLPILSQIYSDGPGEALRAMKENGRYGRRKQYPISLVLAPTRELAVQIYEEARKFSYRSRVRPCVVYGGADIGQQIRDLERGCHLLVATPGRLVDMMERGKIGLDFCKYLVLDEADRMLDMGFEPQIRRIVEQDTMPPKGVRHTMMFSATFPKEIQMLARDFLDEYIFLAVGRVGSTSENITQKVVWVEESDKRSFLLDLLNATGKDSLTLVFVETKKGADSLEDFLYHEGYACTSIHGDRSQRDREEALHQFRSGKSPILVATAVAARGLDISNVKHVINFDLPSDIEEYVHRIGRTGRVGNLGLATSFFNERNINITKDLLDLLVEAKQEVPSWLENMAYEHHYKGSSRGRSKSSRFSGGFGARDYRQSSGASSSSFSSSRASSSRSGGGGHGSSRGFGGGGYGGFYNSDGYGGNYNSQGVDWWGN
Sequence of MBP-ΔΔ DDX3X (O00571 132-607, stated change not applied): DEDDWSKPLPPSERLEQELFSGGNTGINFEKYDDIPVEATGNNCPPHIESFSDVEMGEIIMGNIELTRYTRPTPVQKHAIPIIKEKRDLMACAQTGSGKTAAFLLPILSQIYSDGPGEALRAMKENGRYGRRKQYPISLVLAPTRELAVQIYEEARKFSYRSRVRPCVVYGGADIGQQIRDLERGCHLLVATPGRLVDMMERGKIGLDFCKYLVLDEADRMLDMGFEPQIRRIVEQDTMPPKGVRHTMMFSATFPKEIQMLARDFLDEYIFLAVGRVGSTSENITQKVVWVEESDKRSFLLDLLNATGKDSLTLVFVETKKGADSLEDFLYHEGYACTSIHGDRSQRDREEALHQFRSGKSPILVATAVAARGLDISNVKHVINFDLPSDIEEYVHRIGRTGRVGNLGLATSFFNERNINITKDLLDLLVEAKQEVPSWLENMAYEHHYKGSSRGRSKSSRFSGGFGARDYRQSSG
Sequence of MBP-ΔΔ DDX3Y (O15523 130-605, stated change not applied): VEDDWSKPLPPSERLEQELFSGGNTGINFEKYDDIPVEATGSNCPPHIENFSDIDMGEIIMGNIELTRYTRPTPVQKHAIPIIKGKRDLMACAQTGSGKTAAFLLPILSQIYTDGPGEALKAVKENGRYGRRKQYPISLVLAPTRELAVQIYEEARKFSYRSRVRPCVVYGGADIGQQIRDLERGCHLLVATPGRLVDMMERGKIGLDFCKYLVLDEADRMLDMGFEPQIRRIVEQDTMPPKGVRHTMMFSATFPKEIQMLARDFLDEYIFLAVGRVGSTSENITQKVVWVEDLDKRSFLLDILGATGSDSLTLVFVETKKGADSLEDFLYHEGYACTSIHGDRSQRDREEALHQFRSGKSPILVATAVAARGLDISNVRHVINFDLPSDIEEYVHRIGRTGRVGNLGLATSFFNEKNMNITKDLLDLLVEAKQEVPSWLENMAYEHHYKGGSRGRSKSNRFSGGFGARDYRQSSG

B1: dsRNA I (18-mer/42-mer) (dsRNA)
RNA 1: ACCGCUGCCGUCGCUCCG
RNA 2: UUUUUUUUUUUUUUUUUUUUUUUUCGGAGCGACGGCAGCGGU
Turning to B1, the Kd (as a rule, the concentration at which binding is half-saturated) stood at 884 nM with MBP-DDX3Y full-length [1] and 519 nM in the data set with MBP-DDX3X full-length [2]. Also, the binding signal with MBP-ΔΔ DDX3Y and in the data set with MBP-ΔΔ DDX3X was > 3 fold Kd increase vs full-length in each case. Besides, the “apparent K (half saturation)” value with MBP-DDX3Y full-length [3] is 3.7 ± 3 µM; in the data set with MBP-DDX3X full-length [4] it was 4.1 ± 2 µM.
